Values of other authors as cited in patent US6022890A, “Immunosuppressant tetracyclic triterpenes” (Merck & Co., Inc., priority 1998, dated 2000).

Molecular target: T1, Kv 1.3 channels (CHO cells transfected with Kv 1.3 channels) (Homo sapiens, UniProt P22001)
T1 construct: expressed in transfected cells; host or cells: CHO cells
Conditions: stated for the reference blocker that defines the efflux window

T1 sequence (P22001 whole entry): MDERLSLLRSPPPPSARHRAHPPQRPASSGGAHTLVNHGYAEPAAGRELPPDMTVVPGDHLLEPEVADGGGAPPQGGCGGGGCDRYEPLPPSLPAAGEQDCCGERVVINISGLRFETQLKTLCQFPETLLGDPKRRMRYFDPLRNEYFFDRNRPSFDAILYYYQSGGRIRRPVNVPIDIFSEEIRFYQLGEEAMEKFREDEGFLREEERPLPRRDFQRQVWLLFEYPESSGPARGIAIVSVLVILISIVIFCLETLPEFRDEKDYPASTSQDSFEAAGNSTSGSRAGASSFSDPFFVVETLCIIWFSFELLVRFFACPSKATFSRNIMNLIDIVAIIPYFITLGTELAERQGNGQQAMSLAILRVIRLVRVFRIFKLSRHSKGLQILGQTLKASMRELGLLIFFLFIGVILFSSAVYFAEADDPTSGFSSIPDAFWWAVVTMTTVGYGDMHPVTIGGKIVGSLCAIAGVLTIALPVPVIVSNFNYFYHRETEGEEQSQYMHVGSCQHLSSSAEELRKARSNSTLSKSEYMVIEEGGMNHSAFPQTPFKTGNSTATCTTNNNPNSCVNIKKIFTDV

Question: Which IC50 does the source give for “margatoxin (TIINVKCTSPKQCLPPCKAQFGQSAGAKCMNGKCKCYPH; UniProt P40755 1-39, looked up)” here?
Answer: The IC50 was 0.1 nM.
